According to patent US20120129159A1 (MIT, published 2012):
One block for each binder: values may come before it.

Legend:
[1] = biological target: FKBP-LAP1, P62942
[2] = biological target: mCherry-FKBP-LAP1 (UniProt P62942 2-108); experiment: cell-based or functional assay
[3] = biological target: FKBP-LAP1 (UniProt P62942 1-108, limits assumed); experiment: cell-based or functional assay
FKBP-LAP1, sequence (P62942 other isoform, or with tags, fused parts or gaps limits assumed): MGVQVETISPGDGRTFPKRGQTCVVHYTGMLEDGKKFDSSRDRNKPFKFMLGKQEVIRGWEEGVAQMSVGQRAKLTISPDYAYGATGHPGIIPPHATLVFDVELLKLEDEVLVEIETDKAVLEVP

FKBP-LAP1, P62942, sequence (P62942 whole entry, looked up): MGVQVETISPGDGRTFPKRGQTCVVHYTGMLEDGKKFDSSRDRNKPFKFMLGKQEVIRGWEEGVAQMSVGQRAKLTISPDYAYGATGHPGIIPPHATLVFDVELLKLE
mCherry-FKBP-LAP1, sequence (P62942 other isoform, or with tags, fused parts or gaps): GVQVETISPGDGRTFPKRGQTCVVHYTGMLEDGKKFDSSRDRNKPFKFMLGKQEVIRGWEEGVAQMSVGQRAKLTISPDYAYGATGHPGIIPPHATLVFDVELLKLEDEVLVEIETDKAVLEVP

B1: LplAW37V (protein)
chain: STLRLLISDSYDPWFNLAVEECIFRQMPATQRVLFLVRNADTVVIGRAQNPWKECNTRRMEEDNVRLARRSSGGGAVFHDLGNTCFTFMAGKPEYDKTISTSIVLNALNALGVSAEASGRNDLVVKTVEGDRKVSGSAYRETKDRGFHHGTLLLNADLSRLANYLNPDKKKLAAKGITSVRSRVTNLTELLPGITHEQVCEAITEAFFAHYGERVEAEIISPNKTPDLPNFAETFARQSSWEWNFGQAPAFSHLLDERFTWGGVELHFDVEKGHITRAQVFTDSLNPAPLEALAGRLQGCLYRADMLQQECEALLVDFPEQEKELRELSAWMAGAVR
Km of the enzyme for LAP1 (HPLC assay, ligation of coumarin probe to purified FKBP-LAP1) [1]: 681 ± 168 µM

minimum concentration of mCherry-FKBP-LAP1 required for a signal-to-background ratio >2:1 [2]: 6 µM
B2: FRB-LplAW37V (other)
chain: ILWHEMWHEGLEEASRLYFGERNVKGMFEVLEPLHAMMERGPQTLKETSFNQAYGRDLMEAQEWCRKYMKSGNVKDLTQAWDLYYHVFRRISKSTLRLLISDSYDPWFNLAVEECIFRQMPATQRVLFLVRNADTVVIGRAQNPWKECNTRRMEEDNVRLARRSSGGGAVFHDLGNTCFTFMAGKPEYDKTISTSIVLNALNALGVSAEASGRNDLVVKTVEGDRKVSGSAYRETKDRGFHHGTLLLNADLSRLANYLNPDKKKLAAKGITSVRSRVTNLTELLPGITHEQVCEAITEAFFAHYGERVEAEIISPNKTPDLPNFAETFARQSSWEWNFGQAPAFSHLLDERFTWGGVELHFDVEKGHITRAQVFTDSLNPAPLEALAGRLQGCLYRADMLQQECEALLVDFPEQEKELRELSAWMAGAVR

+/- rapamycin signal-to-background ratio of lipoylation, anti-lipoic acid immunoblot, purified proteins at 10 µM each [3]: > 12 ratio (:1)
signal-to-background ratio of lipoylation in COS7 cells (+/- 100 nM rapamycin), cell lysis and immunoblot [3]: 15 ratio (:1)
signal-to-noise ratio of lipoylation in COS-7 cells with 3 minutes of lipoic acid treatment [3]: 2.5 ratio (:1)
B3: FRB-LplA (other)
chain: ILWHEMWHEGLEEASRLYFGERNVKGMFEVLEPLHAMMERGPQTLKETSFNQAYGRDLMEAQEWCRKYMKSGNVKDLTQAWDLYYHVFRRISKSTLRLLISDSYDPWFNLAVEECIFRQMPATQRVLFLWRNADTVVIGRAQNPWKECNTRRMEEDNVRLARRSSGGGAVFHDLGNTCFTFMAGKPEYDKTISTSIVLNALNALGVSAEASGRNDLVVKTVEGDRKVSGSAYRETKDRGFHHGTLLLNADLSRLANYLNPDKKKLAAKGITSVRSRVTNLTELLPGITHEQVCEAITEAFFAHYGERVEAEIISPNKTPDLPNFAETFARQSSWEWNFGQAPAFSHLLDERFTWGGVELHFDVEKGHITRAQVFTDSLNPAPLEALAGRLQGCLYRADMLQQECEALLVDFPEQEKELRELSAWMAGAVR
